{
  "source": "IntAct's records for PubMed 16996049",
  "parents": {"B1": {"name": "Partitioning defective protein 6 (Caenorhabditis elegans), Q9NAN2 (parent)", "chain": "MSYNGSYHQNHHSTLQVKSKFDSEWRRFSIPMHSASGVSYDGFRSLVEKLHHLESVQFTLCYNSTGGDLLPITNDDNLRKSFESARPLLRLLIQRRGESWEEKYGYGTDSDKRWKGISSLMAQKPPKRSYSISNPEDFRQVSAIIDVDIVPEAHRRVRLCKHGQERPLGFYIRDGTSVRVTERGVVKVSGIFISRLVDGGLAESTGLLGVNDEVLEVNGIEVLGKTLDQVTDMMVANAHNLIITVKPANQRNTLSRGPSQQGTPNASEMSAATAAATGGIQRPMKMNGSSDGSYHPKQHDANDSDSGED"}},
  "data": [
    {"variants_of": "B1", "conditions": "with cdc42_caeel cdc-42, Q05062", "values": [
      {"variant": "MSYNGSYHQNHHSTLQVKSKFDSEWRRFSIPMHSASGVSYDGFRSLVEKLHHLESVQFTLCYNSTGGDLLPITNDDNLRKSFESARPLLRLLIQRRGESWEEKYGYGTDSDKRWKGISSLMAQKPPKRSYSISNAEAAAQVSAIIDVDIVPEAHRRVRLCKHGQERPLGFYIRDGTSVRVTERGVVKVSGIFISRLVDGGLAESTGLLGVNDEVLEVNGIEVLGKTLDQVTDMMVANAHNLIITVKPANQRNTLSRGPSQQGTPNASEMSAATAAATGGIQRPMKMNGSSDGSYHPKQHDANDSDSGED", "note": "[P135A;D137A;F138A;R139A]", "effect of a mutation on the interaction": "disrupting interaction"},
      {"variant": "MSYNGSYHQNHHSTLQVKSKFDSEWRRFSIPMHSASGVSYDGFRSLVEKLHHLESVQFTLCYNSTGGDLLPITNDDNLRKSFESARPLLRLLIQRRGESWEEKYGYGTDSDKRWKGISSLMAQKPPKRSYSISNPEDFRQAAAAADVDIVPEAHRRVRLCKHGQERPLGFYIRDGTSVRVTERGVVKVSGIFISRLVDGGLAESTGLLGVNDEVLEVNGIEVLGKTLDQVTDMMVANAHNLIITVKPANQRNTLSRGPSQQGTPNASEMSAATAAATGGIQRPMKMNGSSDGSYHPKQHDANDSDSGED", "note": "[V141A;S142A;I144A;I145A]", "effect of a mutation on the interaction": "disrupting interaction"}
    ]}
  ]
}
